Where two headings read alike, the source gives them in different places.
How the values were obtained:
Stability in PBS 1X = assay type: physicochemical; conditions: 1:1 with radiolabeled complex, 37 °C, 96 h, moderate agitation, radio-TLC, 50 mM DTPA, triplicate
Experimental: Briefly, 100 µL of the radiolabeled complex was added to 100 µL PBS 1X or human serum (HSA […]) in triplicate. [^67Cu]Cu-SAR-BBN was incubated at 37 °C for 14, 24, 48, 72, and 96 h with moderate agitation. An aliquot (0.5 μL) was withdrawn at each specified time point. Radio-TLCs with a mobile phase of 50 mM DTPA were performed to evaluate the percentage of intact radiolabeled peptides.

[1] = Biodistribution in normal tissues; assay type: in vivo, C57BL/6 female mice; conditions: for tissue uptake at 2 h / tissue uptake at 4 h / tissue uptake at 6 h / tissue uptake at 24 h / tissue uptake at 72 h / tissue uptake at 144 h / tissue uptake at 216 h / tissue uptake at 1 h: female, C57BL/6, mouse, iv, 0.37 MBq, total radioactivity
Experimental: To determine the biodistribution of [^67Cu]Cu-SAR-BBN in normal tissues, 40 female C57BL/6 mice were evaluated in groups of 5 mice at various time points. [^67Cu]Cu-SAR-BBN was prepared in 0.9% saline with a concentration of 0.37 MBq (10 µCi) per 100 µL. Mice (n = 5) were injected with 0.37 MBq radiotracers via tail vein and sacrificed by cervical dislocation at 1 h, 2 h, 4 h, 6 h, 24 h, 3 days, 6 days, and 9 days. Blood, lung, liver, spleen, kidney, muscle, heart, bone, and pancreas were harvested and counted for activity on a gamma counter. The percent injected dose per gram for each tissue of interest (% ID/g) was calculated and expressed as Mean ± SD. All radioactivity measurements were corrected for decay.

[2] = Treatment-related toxicity (body weight, H&E histology of kidney, pancreas, liver); assay type: in vivo, athymic nude mice
Experimental: To assess the therapeutic potential of [^67Cu]Cu-SAR-BBN, athymic nude mice bearing subcutaneous PC-3 tumors with a tumor size of ~150 mm^3 were randomly assigned into 2 groups (n = 12 mice per group). For treatment, mice were dosed intravenously with three injections of 24 MBq [^67Cu]Cu-SAR-BBN on days 0, 2, and 4, followed by a drug-free week before the injections of 24 MBq on days 14, 16, and 18. The total activity injected corresponded to 144 MBq. The control group was injected via tail vein with six injections of 0.9% saline at the same time points. Body weight and tumor volume (through caliper measurements) were monitored and recorded three times a week. Tumor size was calculated by the following formula: L × W^2/2, where L is the long diameter of the tumor and W is the short diameter of the tumor. […] Any remaining mice at day 54 were euthanized, and tumor volume and survival curves were generated and analyzed to evaluate the efficacy of [^67Cu]Cu-SAR-BBN. Percentage tumor growth inhibition was calculated as 100 × (1 − ΔT/ΔC), where ΔC and ΔT were determined by subtracting the mean tumor volume (in the vehicle control and treated group, respectively) on day 0 of treatment from the mean tumor volume on day 19 (the last day all mice remained in the study). […]

With `CC(C)C[C@H](NC(=O)C[C@H](O)[C@H](CC(C)C)NC(=O)[C@H](Cc1c[nH]cn1)NC(=O)CNC(=O)[C@@H](NC(=O)[C@H](C)NC(=O)[C@H](Cc1c[nH]c2ccccc12)NC(=O)[C@H](CCC(N)=O)NC(=O)[C@@H](Cc1ccccc1)NC(=O)CCOCCOCCOCCOCCNC(=O)CCCC(=O)NC12CNCCNCC(C)(CNCCNC1)CNCCNC2)C(C)C)C(N)=O` [[^67Cu]Cu-SAR-BBN, metal not drawn] the “intact radiolabeled peptide in PBS 1X” value (Stability in PBS 1X) was “greater than 95%”, the “Kidney %ID/g” value ([1]; 1 h after i.v. injection of 0.37 MBq, mean, n = 5) was 6.15 %ID/g and the tissue uptake at 2 h ([1]; in vivo, Blood %ID/g) was 0.62 %ID/g. It also gave a tissue uptake at 4 h ([1]; in vivo, Blood %ID/g) of 0.53 %ID/g, a tissue uptake at 6 h ([1]; in vivo, Blood %ID/g) of 0.54 %ID/g and a tissue uptake at 24 h ([1]; in vivo, Blood %ID/g) of 0.33 %ID/g. The tissue uptake at 72 h ([1]; in vivo, Blood %ID/g) was 0.39 %ID/g, the tissue uptake at 144 h ([1]; in vivo, Blood %ID/g) was 0.11 %ID/g and the tissue uptake at 216 h ([1]; in vivo, Blood %ID/g) was 0.06 %ID/g. For the same molecule, the tissue uptake at 1 h ([1]; in vivo, Bone %ID/g) was 0.88 %ID/g, the tissue uptake at 2 h ([1]; in vivo, Bone %ID/g) was 0.4 %ID/g and the tissue uptake at 4 h ([1]; in vivo, Bone %ID/g) was 0.47 %ID/g. It also gave a tissue uptake at 6 h ([1]; in vivo, Bone %ID/g) of 0.46 %ID/g, a tissue uptake at 24 h ([1]; in vivo, Bone %ID/g) of 0.31 %ID/g and a tissue uptake at 72 h ([1]; in vivo, Bone %ID/g) of 0.25 %ID/g. The tissue uptake at 144 h ([1]; in vivo, Bone %ID/g) was 0.09 %ID/g, the tissue uptake at 216 h ([1]; in vivo, Bone %ID/g) was 0.09 %ID/g and the tissue uptake at 1 h ([1]; in vivo, Heart %ID/g) was 1 %ID/g. For the same molecule, the tissue uptake at 2 h ([1]; in vivo, Heart %ID/g) was 0.58 %ID/g, the tissue uptake at 4 h ([1]; in vivo, Heart %ID/g) was 0.78 %ID/g and the tissue uptake at 6 h ([1]; in vivo, Heart %ID/g) was 0.84 %ID/g. The tissue uptake at 24 h ([1]; in vivo, Heart %ID/g) was 0.84 %ID/g, the tissue uptake at 72 h ([1]; in vivo, Heart %ID/g) was 1.35 %ID/g and the tissue uptake at 144 h ([1]; in vivo, Heart %ID/g) was 0.93 %ID/g. The tissue uptake at 216 h ([1]; in vivo, Heart %ID/g) was 0.58 %ID/g, the tissue uptake at 2 h ([1]; in vivo, Liver %ID/g) was 5.08 %ID/g and the tissue uptake at 4 h ([1]; in vivo, Liver %ID/g) was 5.9 %ID/g. It also gave a tissue uptake at 6 h ([1]; in vivo, Liver %ID/g) of 6.78 %ID/g, a tissue uptake at 24 h ([1]; in vivo, Liver %ID/g) of 3.8 %ID/g and a tissue uptake at 72 h ([1]; in vivo, Liver %ID/g) of 4.03 %ID/g. The tissue uptake at 144 h ([1]; in vivo, Liver %ID/g) was 1.31 %ID/g, the tissue uptake at 216 h ([1]; in vivo, Liver %ID/g) was 0.59 %ID/g and the tissue uptake at 2 h ([1]; in vivo, Lung %ID/g) was 1.95 %ID/g. The tissue uptake at 4 h ([1]; in vivo, Lung %ID/g) was 2.68 %ID/g, the tissue uptake at 6 h ([1]; in vivo, Lung %ID/g) was 3.25 %ID/g and the tissue uptake at 24 h ([1]; in vivo, Lung %ID/g) was 1.81 %ID/g. The tissue uptake at 72 h ([1]; in vivo, Lung %ID/g) was 1.89 %ID/g, the tissue uptake at 144 h ([1]; in vivo, Lung %ID/g) was 0.68 %ID/g and the tissue uptake at 216 h ([1]; in vivo, Lung %ID/g) was 0.32 %ID/g. For the same molecule, the tissue uptake at 1 h ([1]; in vivo, Muscle %ID/g) was 0.52 %ID/g, the tissue uptake at 2 h ([1]; in vivo, Muscle %ID/g) was 0.25 %ID/g and the tissue uptake at 4 h ([1]; in vivo, Muscle %ID/g) was 0.35 %ID/g. For the same molecule, the tissue uptake at 6 h ([1]; in vivo, Muscle %ID/g) was 0.59 %ID/g, the tissue uptake at 24 h ([1]; in vivo, Muscle %ID/g) was 0.2 %ID/g and the tissue uptake at 72 h ([1]; in vivo, Muscle %ID/g) was 0.27 %ID/g. For the same molecule, the tissue uptake at 144 h ([1]; in vivo, Muscle %ID/g) was 0.21 %ID/g, the tissue uptake at 216 h ([1]; in vivo, Muscle %ID/g) was 0.15 %ID/g and the tissue uptake at 2 h ([1]; in vivo, Pancreas %ID/g) was 14.7 %ID/g. For the same molecule, the tissue uptake at 4 h ([1]; in vivo, Pancreas %ID/g) was 5.48 %ID/g, the tissue uptake at 6 h ([1]; in vivo, Pancreas %ID/g) was 3.38 %ID/g and the tissue uptake at 24 h ([1]; in vivo, Pancreas %ID/g) was 0.55 %ID/g. The tissue uptake at 72 h ([1]; in vivo, Pancreas %ID/g) was 0.75 %ID/g, the tissue uptake at 144 h ([1]; in vivo, Pancreas %ID/g) was 0.39 %ID/g and the tissue uptake at 216 h ([1]; in vivo, Pancreas %ID/g) was 0.22 %ID/g. For the same molecule, the tissue uptake at 1 h ([1]; in vivo, Spleen %ID/g) was 1.94 %ID/g, the tissue uptake at 2 h ([1]; in vivo, Spleen %ID/g) was 1.27 %ID/g and the tissue uptake at 4 h ([1]; in vivo, Spleen %ID/g) was 0.94 %ID/g. The tissue uptake at 6 h ([1]; in vivo, Spleen %ID/g) was 0.9 %ID/g, the tissue uptake at 24 h ([1]; in vivo, Spleen %ID/g) was 0.51 %ID/g and the tissue uptake at 72 h ([1]; in vivo, Spleen %ID/g) was 0.74 %ID/g. For the same molecule, the tissue uptake at 144 h ([1]; in vivo, Spleen %ID/g) was 0.3 %ID/g, the tissue uptake at 216 h ([1]; in vivo, Spleen %ID/g) was 0.14 %ID/g and the tissue uptake at 2 h ([1]; kidney, 2 h after i.v. injection of 0.37 MBq, mean, n = 5, read-out: Kidney %ID/g) was 3.99 %ID/g. For the same molecule, the tissue uptake at 4 h ([1]; kidney, 4 h after i.v. injection of 0.37 MBq, mean, n = 5, read-out: Kidney %ID/g) was 3.48 %ID/g, the tissue uptake at 6 h ([1]; kidney, 6 h after i.v. injection of 0.37 MBq, mean, n = 5, read-out: Kidney %ID/g) was 3.53 %ID/g and the tissue uptake at 24 h ([1]; kidney, 24 h after i.v. injection of 0.37 MBq, mean, n = 5, read-out: Kidney %ID/g) was 2.37 %ID/g. The tissue uptake at 72 h ([1]; kidney, 72 h after i.v. injection of 0.37 MBq, mean, n = 5, read-out: Kidney %ID/g) was 3.1 %ID/g, the tissue uptake at 144 h ([1]; kidney, 6 days after i.v. injection of 0.37 MBq, mean, n = 5, read-out: Kidney %ID/g) was 1.37 %ID/g and the tissue uptake at 216 h ([1]; kidney, 9 days after i.v. injection of 0.37 MBq, mean, n = 5, read-out: Kidney %ID/g) was 0.74 %ID/g. The “reduction of activity circulating in the blood relative to the 1 h value” ([1]; mouse, in vivo) was “over 70%”, the “histological changes in kidney, pancreas and liver vs control (H&E)” value ([2]; mouse, in vivo) was “no significant histological changes” and the “deaths or euthanasia not related to tumor volume” value ([2]; treated group, n = 12, censored in the survival analysis) was “one mouse from the [^67Cu]Cu-SAR-BBN group was euthanized due to tumor ulceration (day 38), and another two died due to unknown causes (day 5 and day 22)”.
